Results reported in patent US20110182911A1 (published 2011).
Each block holds one molecule with its values, some of them ahead of it.

How the values were obtained:
[1] = molecular target: recombinant human BMP-4 (human) (UniProt P12644); test: cell-based or functional assay
recombinant human BMP-2 = recombinant human BMP-2 (human, UniProt P12643 283-396); test: cell-based or functional assay
Chain of recombinant human BMP-2 (P12643 283-396 limits assumed): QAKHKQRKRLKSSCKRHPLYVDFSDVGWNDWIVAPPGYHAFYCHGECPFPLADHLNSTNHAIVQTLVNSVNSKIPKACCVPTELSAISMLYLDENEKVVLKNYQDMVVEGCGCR

Chain of recombinant human BMP-4 (human) (P12644 293-408 limits assumed): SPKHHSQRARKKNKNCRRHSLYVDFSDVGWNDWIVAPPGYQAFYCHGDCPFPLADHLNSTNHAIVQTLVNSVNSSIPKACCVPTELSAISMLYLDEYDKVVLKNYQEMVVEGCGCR

alkaline phosphatase (ALP) activity in C2C12 cells; molar ratio of antagonist to BMP at which the BMP-induced increase is completely inhibited (molar ratio (bAHSG:rhBMP-4)) [1]: > 56800
alkaline phosphatase (ALP) activity in C2C12 cells; molar ratio of antagonist to BMP at which the BMP-induced increase is completely inhibited (molar ratio (fetuin:rhBMP-4)) [1]: > 55000
Molecule: bovine fetuin (from UniProt P12763 19-359)

alkaline phosphatase (ALP) activity in C2C12 cells; molar ratio of antagonist to BMP at which the BMP-induced increase is completely inhibited (recombinant human BMP-2): 1.1 molar ratio (rmNGN:rhBMP-2)
B1: recombinant mouse Noggin (other, UniProt P97466 28-232, looked up)
chain: QHYLHIRPAPSDNLPLVDLIEHPDPIFDPKEKDLNETLLRSLLGGHYDPGFMATSPPEDRPGGGGGPAGGAEDLAELDQLLRQRPSGAMPSEIKGLEFSEGLAQGKKQRLSKKLRRKLQMWLWSQTFCPVLYAWNDLGSRFWPRYVKVGSCFSKRSCSVPEGMVCKPSKSVHLTVLRWRCQRRGGQRCGWIPIQYPIISECKCSC
